Source: the supplement of paper PMC11246515
± gives the standard deviation of the averaged measurements.

Assay: total protein half-life in vivo (active degradation + dilution); higher = more stable protein
[1] = E. coli NCM3722 delta-clpP delta-lon delta-hslV, growth: N-lim chemostat, doubling time 6 h
[2] = E. coli NCM3722 delta-clpP, growth: N-lim chemostat, doubling time 6 h
[3] = E. coli NCM3722 delta-hslV, growth: N-lim chemostat, doubling time 6 h
[4] = E. coli NCM3722 delta-smpB, growth: N-lim chemostat, doubling time 6 h
[5] = wild type E. coli NCM3722, growth: C-lim chemostat, doubling time 3 h
[6] = wild type E. coli NCM3722, growth: C-lim chemostat, doubling time 6 h
[7] = wild type E. coli NCM3722, growth: C-lim chemostat, doubling time 12 h
[8] = wild type E. coli NCM3722, growth: N-lim chemostat, doubling time 6 h
[9] = wild type E. coli NCM3722, growth: N-lim chemostat, doubling time 12 h
[10] = wild type E. coli NCM3722, growth: P-lim chemostat, doubling time 6 h
[11] = wild type E. coli NCM3722, growth: P-lim chemostat, doubling time 12 h
[12] = E. coli NCM3722 delta-lon, growth: N-lim chemostat, doubling time 6 h

Sequence | total protein half-life in vivo [1] [h] | total protein half-life in vivo [2] [h] | total protein half-life in vivo [3] [h] | total protein half-life in vivo [4] [h] | total protein half-life in vivo [5] [h] | total protein half-life in vivo [6] [h] | total protein half-life in vivo [7] [h] | total protein half-life in vivo [8] [h] | total protein half-life in vivo [9] [h] | total protein half-life in vivo [10] [h] | total protein half-life in vivo [11] [h] | total protein half-life in vivo [12] [h]
MSGAFNNDGRGISPLIATSWERCNKLMKRETWNVPHQAQGVTFASIYRRKKAMLTLGQAALEDAWEYMAPRECALFILDETACILSRNGDPQTLQQLSALGFNDGTYCAEGIIGTCALSLAAISGQAVKTMADQHFKQVLWNWAFCATPLFDSKGRLTGTIALACPVEQTTAADLPLTLAIAREVGNLLLTDSLLAETNRHLNQLNALLESMDDGVISWDEQGNLQFINAQAARVLRLDATASQGRAITELLTLPAVLQQAIKQAHPLKHVEATFESQHQFIDAVITLKPIIETQGTSFILLLHPVEQMRQLMTSQLGKVSHTFAHMPQDDPQTRRLIHFGRQAARSSFPVLLCGEEGVGKALLSQAIHNESERAAGPYIAVNCELYGDAALAEEFIGGDRTDNENGRLSRLELAHGGTLFLEKIEYLAVELQSALLQVIKQGVITRLDARRLIPIDVKVIATTTADLAMLVEQNRFSRQLYYALHAFEITIPPLRMRRGSIPALVNNKLRSLEKRFSTRLKIDDDALARLVSCAWPGNDFELYSVIENLALSSDNGRIRVSDLPEHLFTEQATDDVSATRLSTSLSFAEVEKEAIINAAQVTGGRIQEMSALLGIGRTTLWRKMKQHGIDAGQFKRRV | 6.1 ± 0.41 | 4.96 | 3.96 | 4.08 ± 0.059 | 2.56 ± 0.055 | 4.31 ± 1 | 9.42 ± 0.77 | 4.53 ± 0.17 | 8.2 ± 0.45 | 4.11 ± 0.61 | 7.3 ± 0.38 | 
MSGDILQTPDAPKPQGALDNYFKITARGSTVRQEVLAGLTTFLAMVYSVIVVPGMLGKAGFPPAAVFVATCLVAGFGSLLMGLWANLPMAIGCAISLTAFTAFSLVLGQQISVPVALGAVFLMGVIFTAISVTGVRTWILRNLPMGIAHGTGIGIGLFLLLIAANGVGMVIKNPIEGLPVALGAFTSFPVMMSLLGLAVIFGLEKCRVPGGILLVIIAISIIGLIFDPAVKYHGLVAMPSLTGEDGKSLIFSLDIMGALQPTVLPSVLALVMTAVFDATGTIRAVAGQANLLDKDNQIINGGKALTSDSVSSIFSGLVGAAPAAVYIESAAGTAAGGKTGLTATVVGALFLLILFLSPLSFLIPGYATAPALMYVGLLMLSNVSKLDFNDFIDAMAGLVCAVFIVLTCNIVTGIMLGFVTLVVGRVFAREWQKLNIGTVIITAALVAFYAGGWAI | 4.51 ± 0.38 | 5.04 ± 0.2 | 5.05 | 4.98 ± 0.49 | 3.28 ± 0.56 | 4.99 ± 0.19 |  | 4.98 | 9.21 ± 0.52 | > 8 | 9.89 ± 0.52 | 4.88
MSGKPAARQGDMTQYGGSIVQGSAGVRIGAPTGVACSVCPGGVTSGHPVNPLLGAKVLPGETDIALPGPLPFILSRTYSSYRTKTPAPVGSLGPGWKMPADIRLQLRDNTLILSDNGGRSLYFEHLFPGEDGYSRSESLWLVRGGVAKLDEGHRLAALWQALPEELRLSPHRYLATNSPQGPWWLLGWCERVPEADEVLPAPLPPYRVLTGLVDRFGRTQTFHREAAGEFSGEITGVTDGAGRHFRLVLTTQAQRAEEARQQAISGGTEPSAFPDTLPGYTEYGRDNGIRLSAVWLTHDPEYPENLPAAPLVRYGWTPRGELAAVYDRSNTQVRSFTYDDKYRGRMVAHRHTGRPEICYRYDSDGRVTEQLNPAGLSYTYQYEKDRITITDSLNRREVLHTQGEGGLKRVVKKEHADGSVTQSQFDAVGRLRAQTDAAGRTTEYSPDVVTGLITRITTPDGRASAFYYNHHSQLTSATGPDGLEIRREYDEWGRLIQETAPDGDITRYRYDNPHSDLPCATEDATGSRKTMTWSRYGQLLSFTDCSGYVTRYDHDRFGQVTAVHREEGLSQYRAYDSRGQLIAVKDTQGHETRYEYNAAGDLTTVIAPDGSRNGTQYDAWGKAICTTQGGLTRSMEYDAAGRVIRLTSENGSHTTFRYDVLDRLIQETGFDGRTQRYHHDLTGKLIRSEDEGLVTHWHYDEADRLTHRTVNGETAERWQYDERGWLTDISHISEGHRVTVHYGYDSKGRLASEHLTVHHPQTNELLWQHETRHAYNAQGLANRCIPDSLPAVEWLTYGSGWLSGMKLGDTPLVEYTRDRLHRETLRSFGRYELTTAYTPAGQLQSQHLNSLLSDRDYTWNDNGELIRISSPRQTRSYSYSTTGRLTGVHTTAANLDIRIPYTTDPAGNRLPDPELHPDSALSMWPDNRIARDAHYLYRYDRHGRLTEKTDLIPEGVIRTDDERTHRYHYDSQHRLVHYTRTQYAEPLVESRYLYDPLGRRVAKRVWRRERDLTGWMSLSRKPQVTWYGWDGDRLTTIQNDRTRIQTIYQPGSFTPLIRVETATGELAKTQRRSLADTLQQSGGEDGGSVVFPPVLVQMLDRLESEILADRVSEESRRWLASCGLTVAQMQSQMDPVYTPARKIHLYHCDHRGLPLALISTEGTTAWYAEYDEWGNLLNEENPHQLQQLIRLPGQQYDEESGLYYNRHRYYDPLQGRYITQDPIGLKGGWNFYQYPLNPISNIDPLGLETLKCIKPLHSMGGTGERSGPDIWGNPFYHQYLCVPDGKGDYTCGGQDQRGESKGDGLWGPGKASNDTKEAAGRCDLVETDNSCVENCLKGKFKEVRPRYSVLPDIFTPINLGLFKNCQDWSNDSLETCKMKCSGNNIGRFIRFVFTGVM |  |  |  |  |  |  |  |  |  |  | 13.1 | 
MSGKPAARQGDMTQYGGSIVQGSAGVRIGAPTGVACSVCPGGVTSGHPVNPLLGAKVLPGETDIALPGPLPFILSRTYSSYRTKTPAPVGSLGPGWKMPADIRLQLRDNTLILSDNGGRSLYFEHLFPGEDGYSRSESLWLVRGGVAKLDEGHRLAALWQALPEELRLSPHRYLATNSPQGPWWLLGWCERVPEADEVLPAPLPPYRVLTGLVDRFGRTQTFHREAAGEFSGEITGVTDGAWRHFRLVLTTQAQRAEEARQQAISGGTEPSAFPDTLPGYTEYGRDNGIRLSAVWLTHDPEYPENLPAAPLVRYGWTPRGELAVVYDRSGKQVRSFTYDDKYRGRMVAHRHTGRPEIRYRYDSDGRVTEQLNPAGLSYTYQYEKDRITITDSLDRREVLHTQGEAGLKRVVKKEHADGSVTQSQFDAVGRLRAQTDAAGRTTEYSPDVVTGLITRITTPDGRASAFYYNHHNQLTSATGPDGLELRREYDELGRLIQETAPDGDITRYRYDNPHSDLPCATEDATGSRKTMTWSRYGQLLSFTDCSGYVTRYDHDRFGQMTAVHREEGLSQYRAYDSRGQLIAVKDTQGHETRYEYNIAGDLTAVIAPDGSRNGTQYDAWGKAVRTTQGGLTRSMEYDAAGRVIRLTSENGSHTTFRYDVLDRLIQETGFDGRTQRYHHDLTGKLIRSEDEGLVTHWHYDEADRLTHRTVKGETAERWQYDERGWLTDISHISEGHRVAVHYRYDEKGRLTGERQTVHHPQTEALLWQHETRHAYNAQGLANRCIPDSLPAVEWLTYGSGYLAGMKLGDTPLVEYTRDRLHRETLRSFGRYELTTAYTPAGQLQSQHLNSLLSDRDYTWNDNGELIRISSPRQTRSYSYSTTGRLTGVHTTAANLDIRIPYATDPAGNRLPDPELHPDSTLSMWPDNRIARDAHYLYRYDRHGRLTEKTDLIPEGVIRTDDERTHRYHYDSQHRLVHYTRTQYEEPLVESRYLYDPLGRRVAKRVWRRERDLTGWMSLSRKPQVTWYGWDGDRLTTIQNDRSRIQTIYQPGSFTPLIRVETATGELAKTQRRSLADALQQSGGEDGGSVVFPPVLVQMLDRLESEILADRVSEESRRWLASCGLTVEQMQNQMDPVYTPARKIHLYHCDHRGLPLALISTEGATAWCAEYDEWGNLLNEENPHQLQQLIRLPGQQYDEESGLYYNRHRYYDPLQGRYITQDPIGLKGGWNLYGYQLNPISDIDPLGLSMWEDAKSGACTNGLCGTLSAMIGPDKFDSIDSTAYDALNKINSQSICEDKEFAGLICKDNSGRYFSTAPNRGERKGSYPFNSPCPNGTEKVSAYHTHGADSHGEYWDEIFSGKDEKIVKSKDNNIKSFYLGTPSGNFKAIDNHGKEITNRKGLPNVCRVHGNM |  | 5.71 | 6.16 ± 0.29 |  |  | 5.99 ± 0.77 | 15.1 | 5.88 | 12.5 ± 0.6 | 4.38 | 13.7 | 
MSGLKQELGLAQGIGLLSTSLLGTGVFAVPALAALVAGNNSLWAWPVLIILVFPIAIVFAILGRHYPSAGGVAHFVGMAFGSRLERVTGWLFLSVIPVGLPAALQIAAGFGQAMFGWHSWQLLLAELGTLALVWYIGTRGASSSANLQTVIAGLIVALIVAIWWAGDIKPANIPFPAPGNIELTGLFAALSVMFWCFVGLEAFAHLASEFKNPERDFPRALMIGLLLAGLVYWGCTVVVLHFDAYGEKMAAAASLPKIVVQLFGVGALWIACVIGYLACFASLNIYIQSFARLVWSQAQHNPDHYLARLSSRHIPNNALNAVLGCCVVSTLVIHALEINLDALIIYANGIFIMIYLLCMLAGCKLLQGRYRLLAVVGGLLCVLLLAMVGWKSLYALIMLAGLWLLLPKRKTPENGITT |  |  |  | 5.32 |  |  |  |  |  | 4.1 | 12 | 3.09
MSGLPLISRRRLLTAMALSPLLWQMNTAHAAAIDPNRIVALEWLPVELLLALGIVPYGVADTINYRLWVSEPPLPDSVIDVGLRTEPNLELLTEMKPSFMVWSAGYGPSPEMLARIAPGRGFNFSDGKQPLAMARKSLTEMADLLNLQSAAETHLAQYEDFIRSMKPRFVKRGARPLLLTTLIDPRHMLVFGPNSLFQEILDEYGIPNAWQGETNFWGSTAVSIDRLAAYKDVDVLCFDHDNSKDMDALMATPLWQAMPFVRAGRFQRVPAVWFYGATLSAMHFVRVLDNAIGGKA |  |  | 6.62 | 3.92 ± 1.1 | 2.71 | 5.86 | 12.2 | 5.85 | 12 ± 1.3 |  |  | 6.51 ± 1.4
MSGQGKRLMVMAGGTGGHVFPGLAVAHHLMAQGWQVRWLGTADRMEADLVPKHGIEIDFIRISGLRGKGIKALIAAPLRIFNAWRQARAIMKAYKPDVVLGMGGYVSGPGGLAAWSLGIPVVLHEQNGIAGLTNKWLAKIATKVMQAFPGAFPNAEVVGNPVRTDVLALPLPQQRLAGREGPVRVLVVGGSQGARILNQTMPQVAAKLGDSVTIWHQSGKGSQQSVEQAYAEAGQPQHKVTEFIDDMAAAYAWADVVVCRSGALTVSEIAAAGLPALFVPFQHKDRQQYWNALPLEKAGAAKIIEQPQLSVDAVANTLAGWSRETLLTMAERARAASIPDATERVANEVSRVARA | 5.45 ± 0.24 | 6.19 ± 0.33 | 6.2 ± 0.14 | 6.16 ± 0.19 | 3.02 ± 0.13 | 6.82 ± 0.71 | 10.9 ± 0.94 | 6.21 ± 0.43 | 12.6 ± 0.14 | 6.05 ± 0.2 | 11.6 ± 0.54 | 6.36 ± 0.52
MSHQHTTQTSGQGMLERVFKLREHGTTARTEVIAGFTTFLTMVYIVFVNPQILGVAGMDTSAVFVTTCLIAAFGSIMMGLFANLPVALAPAMGLNAFFAFVVVQAMGLPWQVGMGAIFWGAIGLLLLTIFRVRYWMIANIPVSLRVGITSGIGLFIGMMGLKNAGVIVANPETLVSIGNLTSHSVLLGILGFFIIAILASRNIHAAVLVSIVVTTLLGWMLGDVHYNGIVSAPPSVMTVVGHVDLAGSFNLGLAGVIFSFMLVNLFDSSGTLIGVTDKAGLADEKGKFPRMKQALYVDSISSVTGSFIGTSSVTAYIESSSGVSVGGRTGLTAVVVGLLFLLVIFLSPLAGMVPGYAAAGALIYVGVLMTSSLARVNWQDLTESVPAFITAVMMPFSFSITEGIALGFISYCVMKIGTGRLRDLSPCVIIVALLFILKIVFIDAH | 6.67 ± 0.81 | 6.107 ± 0.041 | 5.86 ± 0.14 | 5.32 ± 0.85 |  | 5.56 ± 0.18 | 12.7 ± 2.2 | 6.02 ± 0.079 |  | 5.99 ± 0.52 | 11.2 ± 0.99 | 5.93
MSHQLTFADSEFSSKRRQTRKEIFLSRMEQILPWQNMVEVIEPFYPKAGNGRRPYPLETMLRIHCMQHWYNLSDGAMEDALYEIASMRLFARLSLDSALPDRTTIMNFRHLLEQHQLARQLFKTINRWLAEAGVMMTQGTLVDATIIEAPSSTKNKEQQRDPEMHQTKKGNQWHFGMKAHIGVDAKSGLTHSLVTTAANEHDLNQLGNLLHGEEQFVSADAGYQGAPQREELAEVDVDWLIAERPGKVRTLKQHPRKNKTAINIEYMKASIRARVEHPFRIIKRQFGFVKARYKGLLKNDNQLAMLFTLANLFRADQMIRQWERSH [P0CE51] | 3.8 ± 0.34 |  |  | 0.495 | > 4 | 0.676 | 3.18 | 0.532 |  | 0.426 | 0.648 | 
